Results taken from article PMC9023281.

Biological target: Polθ helicase domain (amino acids 1–894), O75417
Test: SEC; calibrated size exclusion chromatography of purified Polθ-h
Conditions: remark: other sources report otherwise

B1: Polθ helicase domain (amino acids 1–894), O75417 1-894 (domain or fragment)
chain: MNLLRRSGKRRRSESGSDSFSGSGGDSSASPQFLSGSVLSPPPGLGRCLKAAAAGECKPTVPDYERDKLLLANWGLPKAVLEKYHSFGVKKMFEWQAECLLLGQVLEGKNLVYSAPTSAGKTLVAELLILKRVLEMRKKALFILPFVSVAKEKKYYLQSLFQEVGIKVDGYMGSTSPSRHFSSLDIAVCTIERANGLINRLIEENKMDLLGMVVVDELHMLGDSHRGYLLELLLTKICYITRKSASCQADLASSLSNAVQIVGMSATLPNLELVASWLNAELYHTDFRPVPLLESVKVGNSIYDSSMKLVREFEPMLQVKGDEDHVVSLCYETICDNHSVLLFCPSKKWCEKLADIIAREFYNLHHQAEGLVKPSECPPVILEQKELLEVMDQLRRLPSGLDSVLQKTVPWGVAFHHAGLTFEERDIIEGAFRQGLIRVLAATSTLSSGVNLPARRVIIRTPIFGGRPLDILTYKQMVGRAGRKGVDTVGESILICKNSEKSKGIALLQGSLKPVRSCLQRREGEEVTGSMIRAILEIIVGGVASTSQDMHTYAACTFLAASMKEGKQGIQRNQESVQLGAIEACVMWLLENEFIQSTEASDGTEGKVYHPTHLGSATLSSSLSPADTLDIFADLQRAMKGFVLENDLHILYLVTPMFEDWTTIDWYRFFCLWEKLPTSMKRVAELVGVEEGFLARCVKGKVVARTERQHRQMAIHKRFFTSLVLLDLISEVPLREINQKYGCNRGQIQSLQQSAAVYAGMITVFSNRLGWHNMELLLSQFQKRLTFGIQRELCDLVRVSLLNAQRARVLYASGFHTVADLARANIVEVEVILKNAVPFKSARKAVDEEEEAVEERRNMRTIWVTGRKGLTEREAAALIVEEARMILQQDLVEM
- stoichiometry N: 4
